Assay results from the supplement of paper PMC10567573.

B1: MTMR15 (parent)
chain: YVKAKKSIDKDEEFAGSSPQSSKS
B2: RSPH3 (parent)
chain: VDVQTELYLEEIADRIIEVDMECQ

Variants of: B1
Assay: protein stability index of a GFP-peptide fusion (GPS, HEK-293T) (PSI 1-6); higher = more stable
Settings: c terminus: a fixed tail appended
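Also: lentivirally expressed fusions sorted by FACS into six bins by GFP to DsRed ratio, PSI derived from sequencing read proportions per bin multiplied by bin number.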

Protein stability index: each site, then its substitutions
D9: M 3.01; F 1.92; W 1.61; H 3.27; L 2.76; A 2.92; S 2.69; N 2.61; G 2.95; R 3.05; K 2.45; I 2.73; Q 2.76; Y 2.44; E 2.9; C 2.98; P 2.83; T 2.91; V 2.77
V2: D 5.5; K 5.26; G 5.2; Q 5.09; M 4.91; A 5.13; T 5.08; C 4.52; F 4.74; L 4.84; Y 5.39; H 4.49; I 4.23; N 5.16; R 5.42; W 4.5; E 5.56; P 4.76; S 5.38
K3: T 2.84; Q 3.31; S 2.76; F 3.3; H 3.22; R 2.4; A 2.87; M 3.28; L 3.05; D 3.96; I 3.38; G 2.27; E 3.48; N 3.52; Y 2.61; P 2.04; W 3.1; V 3.85; C 3.3
S7: P 3.41; R 3.22; Y 2.08; A 3.15; G 3.11; D 2.77; Q 2.91; C 3.33; W 2.27; M 3.33; K 3.38; I 3.01; H 3.05; V 3.13; T 2.96; F 3.06; L 2.85; E 3.58; N 2.98
A15: T 3.08; K 2.9; M 2.44; S 2.92; R 2.87; E 3.31; H 3.38; N 2.67; I 3.25; F 1.91; G 3.45; L 3.05; P 3.06; Y 2.14; D 3.63; V 3.42; Q 3.16; C 2.64
Y1: M 5.01; I 5.52; D 5.62; K 5.15; V 5.29; P 5.19; Q 5.48; F 2.79; C 5.51; E 5.82; T 5.69; G 5.7; R 5.62; W 4.66; L 5.14; S 5.49; N 5.4; H 5.11; A 5.37
G16: I 2.86; L 2.85; C 3.22; H 2.71; E 3.36; A 3.07; F 2.03; K 3.11; D 3.54
E12: T 3.21; H 2.71; C 2.59; G 2.8; D 2.69; Q 2.98; A 2.94; R 2.6; P 2.68; K 2.7; Y 1.93; V 2.3; N 2.64; I 2.41; S 2.92; L 2.78; M 2.93; W 2.27; F 2.37
K10: M 3.36; T 3.28; F 2.26; E 3.26; S 3.25; R 3.25; N 2.92; Q 2.67; C 3.27; G 3.28; A 3.63; Y 2.72; W 2.96; D 3.42; L 3.05; P 3.55; I 3.21; V 3.24; H 3.61
I8: Y 2.99; T 3.22; Q 3.3; K 2.98; G 3.64; W 3.22; N 3.33; E 3.42; C 2.83; A 3.18; M 3.22; P 3.77; R 2.98; H 3.28; V 2.97; D 3.7; S 3.55; L 3.07; F 2.81
K6: S 2.84; L 2.55; V 2.64; A 2.98; H 3.26; F 3.02; E 3.95; N 3.25; R 3.43; W 2.7; M 3.16; D 3.87; I 2.67; C 2.54; T 3.5; Y 2.78; Q 3.33; P 3.05; G 3.15
D11: Q 2.94; C 2.71; L 2.46; N 2.87; A 2.83; F 2.48; S 3.05; V 2.72; G 2.88; P 2.56; Y 2.77; I 2.57; H 2.92; R 2.45; M 2.56; T 2.5; K 2.64; E 2.85; W 2.31
F14: Y 3.5; G 3.35; Q 2.89; C 3.43; R 3.25; A 3.25; K 3.29; D 3.45; W 2.67; N 3.49; V 3.61; I 3.59; L 3.27; S 3.46; H 3.47; P 3.74; M 3.12; E 3.94; T 3.55
K5: V 3.47; E 4.21; R 2.73; F 2.44; I 2.29; S 3.12; Y 2.07; Q 3.83; D 4.22; H 2.8; M 2.6; L 2.15; P 2.31; N 3.62; W 1.6; A 3; G 2.9; T 3.31; C 2.74
A4: G 3.42; I 3.24; C 2.97; K 4.12; H 3.51; Y 3.55; Q 3.41; T 2.39; E 3.54; V 3.08; S 2.45; N 2.99; R 3.32; F 2.89; P 3.19; D 3.27; M 3.31; L 3.04; W 1.8
E13: K 2.56; I 2.05; Q 3.07; M 2.39; Y 2.71; S 2.78; C 2.05; T 2.7; G 2.82; L 2.74; H 3.02; W 1.94; P 2.81; A 2.65; R 2.77; V 2.31; N 2.43; F 2.09; D 3.49

Variants of: B2
Assay: as above
Settings: c terminus: a fixed tail appended

Protein stability index: each site, then its substitutions
Q24: F 1.14; H 2.52; K 2.12; C 2.32; T 3.69; Y 2.69; A 1.95; P 3.33; M 1.59; D 2.82; V 1.84; I 2.32; N 2.05; R 2.52; W 1.5; L 1.33; G 2.79; S 2.72; E 2.31
C23: S 3.85; L 3.52; M 2.34; N 3.87; H 4.03; Q 4.31; P 4.06; D 4.4; I 2.23; F 2.07; K 4.46; T 3.68; W 1.88; G 3.72; R 3.46; Y 2.71; V 5.09; A 3.46; E 4.22
E22: T 2.17; Y 2.82; V 1.57
